For 1 substance, E FRET results are on record in paper PMC4284226.

The assay has as its target TRPM8-mTurquoise2 (human) (UniProt Q7Z2W7). In words: FRET or BRET. (In general: BRET reads energy transfer from a luciferase to a nearby fluorophore.)

A value given as a limit tells only on which side of the number the result lay.

UniProt Q7Z2W7, sequence (Q7Z2W7 2-1104): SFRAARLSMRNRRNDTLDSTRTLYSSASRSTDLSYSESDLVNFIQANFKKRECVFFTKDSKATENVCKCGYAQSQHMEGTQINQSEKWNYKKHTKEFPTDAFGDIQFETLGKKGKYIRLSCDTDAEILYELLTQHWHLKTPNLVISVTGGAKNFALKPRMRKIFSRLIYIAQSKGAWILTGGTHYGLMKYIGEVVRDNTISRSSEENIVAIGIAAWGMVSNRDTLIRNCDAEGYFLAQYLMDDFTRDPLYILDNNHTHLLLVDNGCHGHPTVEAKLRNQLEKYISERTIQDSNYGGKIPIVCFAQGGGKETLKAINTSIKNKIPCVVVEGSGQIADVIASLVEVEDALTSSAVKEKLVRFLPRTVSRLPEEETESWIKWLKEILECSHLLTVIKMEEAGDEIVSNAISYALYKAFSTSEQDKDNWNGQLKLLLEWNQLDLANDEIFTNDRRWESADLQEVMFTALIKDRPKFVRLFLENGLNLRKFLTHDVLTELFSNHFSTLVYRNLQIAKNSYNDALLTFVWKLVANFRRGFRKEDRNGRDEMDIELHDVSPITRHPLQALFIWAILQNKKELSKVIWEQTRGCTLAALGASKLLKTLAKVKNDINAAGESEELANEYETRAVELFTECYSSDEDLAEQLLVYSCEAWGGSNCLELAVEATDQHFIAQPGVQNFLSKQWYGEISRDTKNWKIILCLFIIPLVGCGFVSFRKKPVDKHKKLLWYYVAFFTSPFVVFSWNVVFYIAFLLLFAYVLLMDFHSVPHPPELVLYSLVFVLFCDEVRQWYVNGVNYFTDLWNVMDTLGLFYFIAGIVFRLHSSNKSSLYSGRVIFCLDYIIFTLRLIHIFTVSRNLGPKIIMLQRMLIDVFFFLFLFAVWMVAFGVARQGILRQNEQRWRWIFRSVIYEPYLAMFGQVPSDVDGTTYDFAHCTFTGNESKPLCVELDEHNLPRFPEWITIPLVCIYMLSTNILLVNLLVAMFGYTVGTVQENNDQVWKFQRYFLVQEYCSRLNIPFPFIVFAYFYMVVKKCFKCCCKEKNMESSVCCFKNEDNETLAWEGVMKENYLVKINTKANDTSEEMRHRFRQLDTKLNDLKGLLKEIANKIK

For the substance free SYFP2 protein, the E FRET is < 1%.
